{"source": "paper PMC7234810", "about": "(2020)", "key": {"[1]": {"biological_target": "HpBARI expressed with C-terminal tags (Heligmosomoides polygyrus)", "test": "SPR"}, "[2]": {"biological_target": "H. polygyrus Binds Alarmin Receptor and Inhibits (HpBARI), N-terminal tagged (Heligmosomoides polygyrus)", "test": "SPR"}}}
{"binder": "Mouse IL-33-TRAP-Fc (a fusion protein of ST2 and IL-1RAcP with an Fc tag) (Fc fusion) SKSSWGLENEALIVRCPQRGRSTYPVEWYYSDTNESIPTQKRNRIFVSRDRLKFLPARVEDSGIYACVIRSPNLNKTGYLNVTIHKKPPSCNIPDYLMYSTVRGSDKNFKITCPTIDLYNWTAPVQWFKNCKALQEPRFRAHRSYLFIDNVTHDDEGDYTCQFTHAENGTNYIVTATRSFTVEEKGFSMFPVITNPPYNHTMEVEIGKPASIACSACFGKGSHFLADVLWQINKTVVGNFGEARIQEEEGRNESSSNDMDCLTSVLRITGVTEKDLSLEYDCLALNLHGMIRHTIRLRRKQPIDHRSERCDDWGLDTMRQIQVFEDEPARIKCPLFEHFLKYNYSTAHSSGLTLIWYWTRQDRDLEEPINFRLPENRISKEKDVLWFRPTLLNDTGNYTCMLRNTTYCSKVAFPLEVVQKDSCFNSAMRFPVHKMYIEHGIHKITCPNVDGYFPSSVKPSVTWYKGCTEIVDFHNVLPEGMNLSFFIPLVSNNGNYTCVVTYPENGRLFHLTRTVTVKVVGSPKDALPPQIYSPNDRVVYEKEPGEELVIPCKVYFSFIMDSHNEVWWTIDGKKPDDVTVDITINESVSYSSTEDETRTQILSIKKVTPEDLRRNYVCHARNTKGEAEQAAKVKQKVIPPRYTVELACGFGAT", "values": [{"measurement": "koff", "setting": "[1]", "value": "~0.13", "unit": "s⁻¹"}, {"measurement": "koff", "setting": "[2]", "value": "~0.04", "unit": "s⁻¹"}]}
